Target: human type IIA sPLA2 (human) (UniProt P14555)
Test: cell-based or functional assay

Chain of human type IIA sPLA2 (human) (P14555 21-144): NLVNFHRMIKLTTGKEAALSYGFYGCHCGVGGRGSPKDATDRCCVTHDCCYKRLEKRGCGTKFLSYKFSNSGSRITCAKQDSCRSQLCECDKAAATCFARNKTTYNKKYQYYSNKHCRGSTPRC

## D65A-PIP (59-67) (peptide)
  IC50 of sPLA2 enzyme inhibition (3H-labelled E. coli membranes as substrate): 5.45 µM

## D65E-PIP (59-67) (peptide)
  IC50 of sPLA2 enzyme inhibition (3H-labelled E. coli membranes as substrate): 4.95 µM

## D65S-PIP (59-67) (peptide)
  IC50 of sPLA2 enzyme inhibition (3H-labelled E. coli membranes as substrate): 5.25 µM

## PIP (59-67) dimer (peptide)
  IC50 of sPLA2 enzyme inhibition (3H-labelled E. coli membranes as substrate): 1.19 µM
  Mean % Inhibition at fixed peptide concentration [5 µM]: 74.5%
